Test results as given in US20220213181A1 (Novartis, published 2022).
Residue numbers refer to the chain shown, from its start. One block for each binder: values may come before it.

How the values were obtained:
[1] = molecular target: T1, Human ANGPTL3(17-460)-FLAG-His-Avi (human, UniProt Q9Y5C1 17-460, biotin on the C-terminal Avi tag (BirA)); experiment: direct ELISA on MSD streptavidin plate, biotinylated antigen immobilized at 1 nM, antibody at 1 nM, Sulfo-tagged anti-human IgG detection
T1 construct: also called full length human ANGPTL3; hANGPTL3
T1 sequence: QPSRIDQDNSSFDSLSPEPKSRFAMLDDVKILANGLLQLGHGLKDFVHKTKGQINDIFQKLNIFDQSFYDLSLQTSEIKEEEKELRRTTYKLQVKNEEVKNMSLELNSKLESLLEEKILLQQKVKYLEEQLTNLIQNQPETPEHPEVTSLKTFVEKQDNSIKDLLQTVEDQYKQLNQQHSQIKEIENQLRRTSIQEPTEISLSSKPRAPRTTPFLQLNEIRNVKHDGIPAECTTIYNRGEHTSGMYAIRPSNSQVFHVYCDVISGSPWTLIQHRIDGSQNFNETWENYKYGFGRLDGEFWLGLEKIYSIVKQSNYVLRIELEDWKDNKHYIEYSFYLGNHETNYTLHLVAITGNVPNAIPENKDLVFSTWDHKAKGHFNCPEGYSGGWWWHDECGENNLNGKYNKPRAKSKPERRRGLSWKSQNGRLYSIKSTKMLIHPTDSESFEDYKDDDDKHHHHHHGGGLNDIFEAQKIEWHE
Method: Direct ELISA assays were conducted to characterize antibody binding specificity of selected antibodies of the invention. The assay was performed as follows. A 384-well streptavidin-coated Meso Scale Discovery (MSD) plate was blocked by incubating the plate with 50 μL Blocking Buffer (PBS, pH 7.4, 5% w/v bovine serum albumin) per well at 22° C. for 1 hour with constant shaking (600 rpm). The blocked MSD plate was then washed 3 times with Wash Buffer (PBS, pH 7.4 and 0.05% v/v Tween-20) using a plate washer (BioTek). Following washing, biotinylated human ANGPTL4 proteins diluted in Assay Buffer (PBS, pH 7.4 without CaCl₂ or MgCl₂, 0.5% w/v fatty acid-free bovine serum albumin and 0.02% v/v Tween-20) were immobilized on the surface by incubation at 1 nM concentration (15 μL per well) at 22° C. for one hour: full length human ANGPTL4 (hANGPTL4), human ANGPTL4 coiled-coil domain (hANGPTL4-CCD) and full length human ANGPTL3 (hANGPTL3). The plate was then washed 3 times as described earlier. Antibody diluted to 1 nM concentration in Assay Buffer was then applied to the MSD plate (15 μL per well), and the plate was incubated for 1 hour at 22° C. with constant shaking (600 rpm). Bound antibodies were detected by adding 15 μL per well of a 1:500 dilution of Sulfo-tagged goat anti-human IgG. The plate was then incubated for one hour with constant shaking (600 rpm). The plate was washed 3 times, and then 15 μL/well of 1× MSD read buffer T was added and the plate was developed using a Sector Imager 6000 (Meso Scale Discovery). The data were transferred to Microsoft Excel for analysis and plotted using GraphPad Prism v6. […] An ANGPTL3-specific reference antibody was used as a positive control for the ANGPTL3 binding assay (FIG. 2).

[2] = molecular target: T2, Human ANGPTL4(26-406)-FLAG-His6-Avi (human, UniProt Q9BY76 24-406, biotin on the C-terminal Avi tag (BirA) where the protein is immobilised); experiment: cell-based or functional assay
T2 sequence: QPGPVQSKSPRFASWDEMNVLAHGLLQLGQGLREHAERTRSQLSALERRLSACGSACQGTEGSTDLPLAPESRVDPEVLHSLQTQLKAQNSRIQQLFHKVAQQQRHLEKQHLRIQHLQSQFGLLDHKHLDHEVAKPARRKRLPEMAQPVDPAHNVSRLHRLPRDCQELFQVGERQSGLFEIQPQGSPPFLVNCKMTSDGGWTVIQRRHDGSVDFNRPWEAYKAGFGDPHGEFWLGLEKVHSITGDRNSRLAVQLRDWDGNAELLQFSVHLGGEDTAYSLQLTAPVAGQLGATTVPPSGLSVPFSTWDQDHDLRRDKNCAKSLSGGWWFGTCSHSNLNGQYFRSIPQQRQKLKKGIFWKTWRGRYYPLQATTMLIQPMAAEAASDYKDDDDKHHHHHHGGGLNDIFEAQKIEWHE

[3] = molecular target: T2, Human ANGPTL4(26-406)-FLAG-His6-Avi; experiment: Octet (ForteBio) kinetics, biotinylated antigen on streptavidin sensor, IgG in solution
Method: Dissociation constants (KD) were determined for selected antibodies of the invention by using an Octet (ForteBio) kinetic binding assay. ForteBio 10× Kinetics Buffer (ForteBio, catalog number 18-5032) was diluted 10-fold with DPBS (Life Technologies, catalog number 14190-136), and the resulting solution was added (0.2 ml per well) to a 96-well plate (Greiner, catalog number 65520). Streptavidin sensors (ForteBio, catalog number 18-5020) were immersed in the solution and equilibrated for at least 10 min at room temperature. In a second 96-well plate (Greiner, catalog number 65520), sensors were washed in 1× Kinetics buffer, and then immersed in 200 ul of 25 nM biotinylated human ANGPTL4 or a biotinylated reference protein (for background subtraction) for 1000 sec at […] room temperature. […] The sensors were then transferred to a well containing 200 μl 1× Kinetics buffer, and antibody dissociation was monitored for 1200 seconds. Background-corrected association and dissociation curves were globally fitted by Octet Software (ForteBio) to generate association (kₐ) and dissociation (kd) rate constants, which in turn were used to calculate equilibrium dissociation constants (KD).

P37 = molecular target: T3, P37 (human); experiment: linear peptide array on glass (JPT)
T3 construct: linear 15-mer from the N-terminal coiled coil domain of human ANGPTL4
T3 peptide: HLRIQHLQSQFGLLD
Method: (§1) The ability of selected antibodies of invention, namely NEG276 and NEG318, to bind to linear 15-amino-acid peptides derived from the N-terminal coiled coil domain of human ANGPTL4 was tested. The peptides were immobilized on a glass surface, and the ability of NEG276 and NEG318 to bind to the immobilized peptides was evaluated using experimental methods optimized for linear peptide epitope mapping at JPT Peptide Technologies (Berlin, Germany).

P10 = molecular target: T4, P10 (human); experiment: linear peptide array on glass (JPT)
T4 construct: linear 15-mer from the N-terminal coiled coil domain of human ANGPTL4
T4 peptide: QGLREHAERTRSQLS
Method: as §1

P5 = molecular target: T5, P5 (human); experiment: linear peptide array on glass (JPT)
T5 construct: linear 15-mer from the N-terminal coiled coil domain of human ANGPTL4
T5 peptide: WDEMNVLAHGLLQLG
Method: as §1

P27 = molecular target: T6, P27 (human); experiment: linear peptide array on glass (JPT)
T6 construct: linear 15-mer from the N-terminal coiled coil domain of human ANGPTL4
T6 peptide: SLQTQLKAQNSRIQQ
Method: as §1

B2: NEG276 (antibody, human IgG1, kappa)
heavy: not shown
light: EIVMTQSPATLSVSPGERATLSCKASQDIGSNLNWLQQKPGQAPRRLIYAVSNRGPGIPARFSGSRSGSEYTLTISSLQSEDFAVYYCLQYASSPWTFGQGTKVEIKRTVAAPSVFIFPPSDEQLKSGTASVVCLLNNFYPREAKVQWKVDNALQSGNSQESVTEQDSKDSTYSLSSTLTLSKADYEKHKVYACEVTHQGLSSPVTKSFNRGEC
notes: humanized, hIgG1/kappa, parental antibody 19C16
binding result [1]: no binding (tested: 1 nM)
EC50 of the antibody-mediated increase in lipoprotein lipase enzyme activity (reversal of LPL inhibition by ANGPTL4) [2]: 600 pM
Kd [3]: 23 pM
koff [3]: 8e-06 s⁻¹
kon [3]: 340000 M⁻¹ s⁻¹
binding result (P37): no binding
binding result (P10): no binding
binding result (P5): no binding
binding result (P27): no binding

B3: NEG278 (antibody, human IgG1, kappa, V domains shown)
VH: QVQLVQSGAEVKKPGASVKVSCKASAYTFTSSWMQWVRQAPGQGLEWMGEIDPSDNYANYNQKFQGRVTLTVDTSTSTAYMELSSLRSEDTAVYYCASGSYFSNFFDYWGQGTLVTVSS
VL: EIVMTQSPATLSVSPGERATLSCKASQDIGSNLNWLQQKPGQAPRRLIYAASVREPGIPARFSGSRSGSEYTLTISSLQSEDFAVYYCLQYASSPWTFGQGTKVEIKR
notes: as for B2
binding result [1]: no binding (tested: 1 nM)
EC50 of the antibody-mediated increase in lipoprotein lipase enzyme activity (reversal of LPL inhibition by ANGPTL4) [2]: 700 pM
kon [3]: 300000 M⁻¹ s⁻¹

B4: NEG276-LALA (antibody, human IgG1, kappa, L234A L235A)
heavy: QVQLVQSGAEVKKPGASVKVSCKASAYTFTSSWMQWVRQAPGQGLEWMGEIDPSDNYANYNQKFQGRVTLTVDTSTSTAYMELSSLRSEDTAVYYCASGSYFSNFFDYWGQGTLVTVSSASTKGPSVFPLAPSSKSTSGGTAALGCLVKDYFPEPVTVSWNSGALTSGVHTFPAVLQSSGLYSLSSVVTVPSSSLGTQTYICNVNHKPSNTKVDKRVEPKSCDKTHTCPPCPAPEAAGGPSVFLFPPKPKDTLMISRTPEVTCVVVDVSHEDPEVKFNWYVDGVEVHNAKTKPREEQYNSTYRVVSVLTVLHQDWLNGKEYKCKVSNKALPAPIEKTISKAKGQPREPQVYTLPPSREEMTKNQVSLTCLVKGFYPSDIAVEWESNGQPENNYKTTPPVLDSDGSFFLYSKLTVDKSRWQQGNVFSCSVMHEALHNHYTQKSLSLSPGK
light: B2 light
EC50 of the antibody-mediated increase in lipoprotein lipase enzyme activity (reversal of LPL inhibition by ANGPTL4) [2]: 700 pM

B5: NEG315 (antibody, human IgG1, kappa, V domains shown)
VH: QVQLVQSGAEVKKPGASVKVSCKASGYTFTNYWITWVRQAPGQGLEWMGDFYPGGGNTNYNAKLQGRVTLTVDTSTSTAYMELRSLRSDDTAVYYCARSPPQVAPFDYWGQGTLVTVSS
VL: DIQMTQSPSSLSASVGDRVTITCQASEYIYNWLGWYQQKPGKAPKLLISGASGLETGVPSRFSGSGSGKDYTFTISSLQPEDIATYYCQQYWSTPWTFGQGTKLEIKR
notes: humanized, hIgG1/kappa, parental antibody 37P1
binding result [1]: no binding (tested: 1 nM)
EC50 of the antibody-mediated increase in lipoprotein lipase enzyme activity (reversal of LPL inhibition by ANGPTL4) [2]: 3000 pM
Kd [3]: 29 pM
koff [3]: 7.9e-06 s⁻¹
kon [3]: 280000 M⁻¹ s⁻¹

B6: NEG318 (antibody, human IgG1, kappa, V domains shown)
VH: B5 VH with N31S, Y32F, F51I, G56A, N57T, A62E, A104G
VL: B5 VL with E27D, N31H, G34A, G53S, T94I
notes: humanized, hIgG1/kappa, parental antibody 14P18
binding result [1]: no binding (tested: 1 nM)
EC50 of the antibody-mediated increase in lipoprotein lipase enzyme activity (reversal of LPL inhibition by ANGPTL4) [2]: 1400 pM
Kd [3]: 45 pM
koff [3]: 1.2e-05 s⁻¹
kon [3]: 270000 M⁻¹ s⁻¹
binding result (P37): no binding
binding result (P10): no binding
binding result (P5): no binding
binding result (P27): no binding

Second part, the binder after the results:

binding result [1]: no binding (tested: 1 nM)
EC50 of the antibody-mediated increase in lipoprotein lipase enzyme activity (reversal of LPL inhibition by ANGPTL4) [2]: 1600 pM
Kd [3]: 25 pM
koff [3]: 1.1e-05 s⁻¹
kon [3]: 220000 M⁻¹ s⁻¹
B1: NEG310 (antibody, human IgG1, kappa, V domains shown)
VH: QVQLVQSGAEVKKPGASVKVSCKASGYTFTSYTMHWVRQAPGQGLEWMGYINPSSGYTKYNQKFQGRVTMTADKSTSTAYMELSSLRSEDTAVYYCAEGWLLLAMDYWGQGTLVTVSS
VL: EAVVTQSPATLSLSPGERATLSCRSSTGAVTTSNYAIWVQEKPGQAPRGLIGGTNNRAPGIPARFSGSLSGDDATLTISSLQPEDFAVYFCALWYSDHWVFGQGTKVEIKR
notes: humanized, hIgG1/kappa, parental antibody 17B1

binding result [1]: no binding (tested: 1 nM)
EC50 of the antibody-mediated increase in lipoprotein lipase enzyme activity (reversal of LPL inhibition by ANGPTL4) [2]: 3000 pM
Kd [3]: 40 pM
koff [3]: 1.1e-05 s⁻¹
kon [3]: 280000 M⁻¹ s⁻¹
B7: NEG313 (antibody, human IgG1, kappa, V domains shown)
VH: B5 VH with T30N, N57S
VL: B5 VL with E27D, N31H
notes: as for B5

binding result [1]: no binding (tested: 1 nM)
EC50 of the antibody-mediated increase in lipoprotein lipase enzyme activity (reversal of LPL inhibition by ANGPTL4) [2]: 500 pM
Kd [3]: 36 pM
koff [3]: 1e-05 s⁻¹
kon [3]: 280000 M⁻¹ s⁻¹
B8: NEG319 (antibody, human IgG1, kappa, V domains shown)
VH: B5 VH with N31S, Y32F, F51I, G56A, A62E, A104G
VL: B5 VL with Y30I, G34A, S52T, T94I
notes: as for B6
